Each block holds one substance with its values, some of them ahead of it.
Key:
Test in all cases: cell-based or functional assay
[1] = target: CD51/alphaV integrin (human) (UniProt P06756)
CD36 (human) = CD36 (human) (UniProt P16671)
[2] = target: Thrombospondin (TSP)-1 (human) (UniProt P07996)
Chain of UniProt P07996 (P07996 19-1170 A84T limits assumed): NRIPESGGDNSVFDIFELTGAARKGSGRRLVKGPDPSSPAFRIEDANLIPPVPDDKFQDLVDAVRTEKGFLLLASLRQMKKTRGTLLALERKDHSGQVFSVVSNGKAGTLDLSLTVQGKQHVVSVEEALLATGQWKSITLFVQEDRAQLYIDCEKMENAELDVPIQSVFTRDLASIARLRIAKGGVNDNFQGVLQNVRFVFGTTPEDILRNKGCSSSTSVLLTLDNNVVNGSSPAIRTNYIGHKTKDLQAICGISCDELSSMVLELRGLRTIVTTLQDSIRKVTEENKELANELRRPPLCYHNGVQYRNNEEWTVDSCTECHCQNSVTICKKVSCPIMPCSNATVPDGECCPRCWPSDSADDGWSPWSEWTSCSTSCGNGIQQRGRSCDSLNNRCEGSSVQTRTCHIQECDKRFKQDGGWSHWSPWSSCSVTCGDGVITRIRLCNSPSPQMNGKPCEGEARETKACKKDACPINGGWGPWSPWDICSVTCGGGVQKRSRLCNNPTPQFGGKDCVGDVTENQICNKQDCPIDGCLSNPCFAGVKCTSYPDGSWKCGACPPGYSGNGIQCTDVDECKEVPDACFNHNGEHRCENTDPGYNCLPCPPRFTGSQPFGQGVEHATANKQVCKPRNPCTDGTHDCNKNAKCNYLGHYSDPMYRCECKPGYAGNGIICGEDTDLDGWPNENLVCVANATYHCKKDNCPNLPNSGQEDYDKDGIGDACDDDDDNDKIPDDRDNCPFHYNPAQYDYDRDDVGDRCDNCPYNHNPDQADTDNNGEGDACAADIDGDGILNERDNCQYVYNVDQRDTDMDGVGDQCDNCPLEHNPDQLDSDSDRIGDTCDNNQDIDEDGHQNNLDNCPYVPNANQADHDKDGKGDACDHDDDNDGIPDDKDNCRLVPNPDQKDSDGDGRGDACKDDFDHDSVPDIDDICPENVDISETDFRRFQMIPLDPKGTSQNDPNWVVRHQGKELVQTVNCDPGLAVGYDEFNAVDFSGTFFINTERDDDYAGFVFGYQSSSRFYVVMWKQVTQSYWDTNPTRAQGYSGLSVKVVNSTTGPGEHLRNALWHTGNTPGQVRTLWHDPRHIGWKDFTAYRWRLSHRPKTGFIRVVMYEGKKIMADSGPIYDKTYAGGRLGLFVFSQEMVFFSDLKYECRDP

Chain of UniProt P16671 (P16671 2-472): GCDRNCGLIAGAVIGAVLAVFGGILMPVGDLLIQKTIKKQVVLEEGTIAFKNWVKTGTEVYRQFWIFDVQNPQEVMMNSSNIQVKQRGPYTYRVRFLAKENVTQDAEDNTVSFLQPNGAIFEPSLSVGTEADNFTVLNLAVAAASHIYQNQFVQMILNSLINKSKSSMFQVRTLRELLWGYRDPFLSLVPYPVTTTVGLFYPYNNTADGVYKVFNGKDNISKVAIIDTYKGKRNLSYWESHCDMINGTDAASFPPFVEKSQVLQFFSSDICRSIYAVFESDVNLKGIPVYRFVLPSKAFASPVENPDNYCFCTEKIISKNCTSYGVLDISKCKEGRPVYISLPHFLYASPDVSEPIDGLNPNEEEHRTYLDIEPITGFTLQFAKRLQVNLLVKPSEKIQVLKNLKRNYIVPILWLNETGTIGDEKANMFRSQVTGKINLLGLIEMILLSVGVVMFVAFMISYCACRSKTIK
Chain of UniProt P06756 (P06756 31-1048): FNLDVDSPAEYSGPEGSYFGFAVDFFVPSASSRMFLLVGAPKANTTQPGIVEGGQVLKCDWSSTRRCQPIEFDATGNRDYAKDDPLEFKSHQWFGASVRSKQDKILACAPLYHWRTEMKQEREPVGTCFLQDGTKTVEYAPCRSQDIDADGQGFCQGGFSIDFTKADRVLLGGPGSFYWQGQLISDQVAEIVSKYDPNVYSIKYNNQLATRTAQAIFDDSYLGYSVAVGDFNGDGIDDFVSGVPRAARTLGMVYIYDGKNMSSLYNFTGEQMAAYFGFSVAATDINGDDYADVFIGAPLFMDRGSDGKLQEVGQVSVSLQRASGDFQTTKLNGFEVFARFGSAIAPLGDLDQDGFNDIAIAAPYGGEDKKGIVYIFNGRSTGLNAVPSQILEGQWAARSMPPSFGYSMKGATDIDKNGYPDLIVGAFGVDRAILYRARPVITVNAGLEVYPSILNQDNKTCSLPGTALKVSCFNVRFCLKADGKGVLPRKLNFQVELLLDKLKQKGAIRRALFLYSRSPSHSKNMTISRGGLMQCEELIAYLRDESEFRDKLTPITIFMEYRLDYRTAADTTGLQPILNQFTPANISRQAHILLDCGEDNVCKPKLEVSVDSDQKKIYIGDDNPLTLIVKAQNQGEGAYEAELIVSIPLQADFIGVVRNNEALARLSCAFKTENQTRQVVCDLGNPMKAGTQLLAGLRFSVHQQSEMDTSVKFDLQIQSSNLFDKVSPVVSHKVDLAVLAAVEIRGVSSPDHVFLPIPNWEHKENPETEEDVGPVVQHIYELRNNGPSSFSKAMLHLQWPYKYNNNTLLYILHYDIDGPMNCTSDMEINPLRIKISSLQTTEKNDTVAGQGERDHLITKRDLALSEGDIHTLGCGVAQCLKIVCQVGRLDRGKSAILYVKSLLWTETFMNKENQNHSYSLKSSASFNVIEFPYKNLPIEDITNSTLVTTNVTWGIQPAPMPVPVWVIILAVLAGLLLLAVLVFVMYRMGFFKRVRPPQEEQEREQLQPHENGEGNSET

inhibition of apoptotic monocyte endocytosis by immature dendritic cells (percentage of thrombospondin-1-dependent endocytosis) [1]: 24 percent
Substance: mouse anti-CD51/integrin alphaV monoclonal antibody (clone AV1; Chemicon International, Cat. No. MAB2021Z)

inhibition of apoptotic monocyte endocytosis by immature dendritic cells (percentage of thrombospondin-1-dependent endocytosis) (CD36 (human)): 64 percent
Substance: mouse IgM anti-human CD36 monoclonal antibody (clone SMO; Serotec, Cat. No. MCA722XZ)

inhibition of apoptotic monocyte endocytosis by immature dendritic cells (percentage of thrombospondin-1-dependent endocytosis) [2]: 90 percent
Substance: azide-free polyclonal goat anti-human thrombospondin-1 N-terminus antibody N-20 (Santa Cruz Biotechnology, Cat No. sc-12312)

Reference: US20100255003A1
